# Laboratory results: the PETadex activity labels (doi:10.1002/cbic.201800097)
# Where a chain is given by its changes, count along the chain named.
# B1: unnamed (protein)
# chain: NPYARGPNPTAASLEASAGPFTVRSFTVSRPSGYGAGTVYYPTNAGGTVGAIAIVPGYTARQSSIKWWGPRLASHGFVVITIDTNSTLDQPSSRSSQQMAALRQVASLNGTSSSPIYGKVDTARMGVMGWSMGGGGSLISAANNPSLKAAAPQAPWDSSTNFSSVTVPTLIFACENDSIAPVNSSALPIYDSMSRNAKQFLEINGGSHSCAASGNSNQALIGKKGVAWMKRFMDNDTRYSTFACENPNSTRVSDFRTANCS
# B2: unnamed (protein)
# chain: B1 chain with Y58A, A212N
# B3: unnamed (protein)
# chain: B1 chain with C174A, C210A, A212N
# B4: unnamed (protein)
# chain: B1 chain with A180I, A212N
# B5: unnamed (protein)
# chain: B1 chain with W68L, A212N
# B6: unnamed (protein)
# chain: B1 chain with W156A, A212N
# B7: unnamed (protein)
# chain: B1 chain with C210A, A212N
# B8: unnamed (protein)
# chain: B1 chain with Q90A, A212N
# B9: unnamed (protein)
# chain: B1 chain with S131A, D177A, H208A, A212N
# B10: unnamed (protein)
# chain: B1 chain with Y58F, A212N
# B11: unnamed (protein)
# chain: MNFPRASRLMQAAVLGGLMAVSAAATAQTNPYARGPNPTAASLEASAGPFTVRSFTVSRPSGYGAGTVYYPTNAGGTVGAIAIVPGYTARQSSIKWWGPRLASHGFVVITIDTNSTLDQPSSRSSQQMAALRQVASLNGTSSSPIYGKVDTARMGVMGWSMGGGGSLISAANNPSLKAAAPQAPWDSSTNFSSVTVPTLIFACENDSIAPVNSSALPIYDSMSRNAKQFLEINGGSHSCANSGNSNQALIGKKGVAWMKRFMDNDTRYSTFACENPNSTRVSDFRTANCS
# B12: unnamed (protein)
# chain: B11 chain with N212A
# B13: unnamed (protein)
# chain: B11 chain with A180I
# Tests used:
# PET [1] = test: Proxy for plastic degradation [Released monomer concentration (HPLC/LC-MS) (TPA)]
# PET [2] = test: Proxy for plastic degradation [Released monomer concentration (HPLC/LC-MS) (MHET)]
# BHET = test: Proxy for plastic degradation [Released monomer concentration (HPLC/LC-MS) (MHET+TPA)]
# [3] = pH 10.5, part of the chain shown
protein,measurement,setting,value
B1,Proxy for plastic degradation,PET [1]; pH 9,0 nM
same,Proxy for plastic degradation,PET [2]; pH 9,1.5 nM
B2,Proxy for plastic degradation,PET [1]; pH 9,21 nM
same,Proxy for plastic degradation,BHET; pH 7.5,1.09 µM
B3,Proxy for plastic degradation,"PET [1]; pH 9, part of the chain shown",0 nM
same,Proxy for plastic degradation,"PET [2]; pH 9, part of the chain shown",0.5 nM
B4,Proxy for plastic degradation,PET [1]; pH 9,11 nM
same,Proxy for plastic degradation,PET [2]; pH 9,13 nM
B5,Proxy for plastic degradation,PET [1]; pH 9,0 nM
same,Proxy for plastic degradation,PET [2]; pH 9,0 nM
same,Proxy for plastic degradation,BHET; pH 7.5,0.18 µM
B6,Proxy for plastic degradation,PET [1]; pH 9,2 nM
same,Proxy for plastic degradation,PET [2]; pH 9,1.5 nM
B7,Proxy for plastic degradation,PET [1]; pH 9,0 nM
same,Proxy for plastic degradation,PET [2]; pH 9,0 nM
same,Proxy for plastic degradation,BHET; pH 7.5,0.22 µM
B8,Proxy for plastic degradation,PET [1]; pH 9,6 nM
same,Proxy for plastic degradation,BHET; pH 7.5,0.94 µM
B9,Proxy for plastic degradation,PET [1]; pH 9,0 nM
same,Proxy for plastic degradation,PET [2]; pH 9,0 nM
B10,Proxy for plastic degradation,PET [1]; pH 9,0 nM
same,Proxy for plastic degradation,PET [2]; pH 9,0 nM
same,Proxy for plastic degradation,BHET; pH 7.5,0.54 µM
B11,Proxy for plastic degradation,"PET [1]; pH 8, part of the chain shown",0 nM
same,Proxy for plastic degradation,"PET [1]; pH 10, part of the chain shown",0 nM
same,Proxy for plastic degradation,PET [1]; [3],0 nM
same,Proxy for plastic degradation,"PET [2]; 25 °C, part of the chain shown",1300 nM
same,Proxy for plastic degradation,"PET [2]; 30 °C, part of the chain shown",5300 nM
same,Proxy for plastic degradation,"PET [2]; 35 °C, part of the chain shown",2200 nM
same,Proxy for plastic degradation,"PET [2]; 40 °C, part of the chain shown",0 nM
same,Proxy for plastic degradation,"PET [2]; pH 9, 25 °C, part of the chain shown",10.5 nM
same,Proxy for plastic degradation,"PET [2]; pH 9, 30 °C, part of the chain shown",12.9 nM
same,Proxy for plastic degradation,"PET [2]; pH 9, 35 °C, part of the chain shown",8 nM
same,Proxy for plastic degradation,"PET [2]; pH 9, 40 °C, part of the chain shown",5.5 nM
same,Proxy for plastic degradation,"PET [2]; pH 9, part of the chain shown",12700 nM
same,Proxy for plastic degradation,PET [2]; [3],0 nM
same,Proxy for plastic degradation,"BHET; pH 5, part of the chain shown",0.58 µM
same,Proxy for plastic degradation,"BHET; pH 5.5, part of the chain shown",0.9 µM
same,Proxy for plastic degradation,"BHET; pH 6, part of the chain shown",1.51 µM
same,Proxy for plastic degradation,"BHET; pH 6.5, part of the chain shown",1.72 µM
same,Proxy for plastic degradation,"BHET; pH 7, part of the chain shown",1.72 µM
same,Proxy for plastic degradation,"BHET; pH 7.5, 25 °C, part of the chain shown",0.95 µM
same,Proxy for plastic degradation,"BHET; pH 7.5, 30 °C, part of the chain shown",1.75 µM
same,Proxy for plastic degradation,"BHET; pH 7.5, 35 °C, part of the chain shown",1.04 µM
same,Proxy for plastic degradation,"BHET; pH 7.5, 40 °C, part of the chain shown",0.65 µM
same,Proxy for plastic degradation,"BHET; pH 7.5, 45 °C, part of the chain shown",0.3 µM
same,Proxy for plastic degradation,"BHET; pH 7.5, 50 °C, part of the chain shown",0.17 µM
same,Proxy for plastic degradation,"BHET; pH 7.5, 55 °C, part of the chain shown",0.14 µM
same,Proxy for plastic degradation,"BHET; pH 7.5, 60 °C, part of the chain shown",0.16 µM
same,Proxy for plastic degradation,"BHET; pH 8, part of the chain shown",1.65 µM
same,Proxy for plastic degradation,"BHET; pH 8.5, part of the chain shown",1.47 µM
same,Proxy for plastic degradation,"BHET; pH 9, part of the chain shown",1.1 µM
same,Proxy for plastic degradation,"BHET; pH 9.5, part of the chain shown",0.47 µM
B12,Proxy for plastic degradation,PET [1]; pH 9,0 nM
same,Proxy for plastic degradation,PET [2]; pH 9,2 nM
same,Proxy for plastic degradation,BHET; pH 7.5,0.42 µM
B13,Proxy for plastic degradation,PET [1]; pH 9,10.5 nM
same,Proxy for plastic degradation,PET [2]; pH 9,13.4 nM
same,Proxy for plastic degradation,BHET; pH 7.5,0.31 µM
